Test results taken from patent publication US8703708.

Key:
Test in all cases: cell-based or functional assay
[1] = target: Lrp6 + Fzd7 co-expressed on STF (superTOPFLASH) reporter cells (UniProt O88572)
[2] = target: Lrp6 + Fzd4 co-expressed on STF (superTOPFLASH) reporter cells (UniProt O88572)
[3] = target: Lrp5 + Fzd4 co-expressed on STF (superTOPFLASH) reporter cells (UniProt Q91VN0)
[4] = target: Lrp5 + Fzd7 co-expressed on STF (superTOPFLASH) reporter cells (UniProt Q91VN0)
Chain of Lrp5 + Fzd7 co-expressed on STF (superTOPFLASH) reporter cells (Q91VN0 31-1614 limits assumed, chain 1 of 2, other chains not shown): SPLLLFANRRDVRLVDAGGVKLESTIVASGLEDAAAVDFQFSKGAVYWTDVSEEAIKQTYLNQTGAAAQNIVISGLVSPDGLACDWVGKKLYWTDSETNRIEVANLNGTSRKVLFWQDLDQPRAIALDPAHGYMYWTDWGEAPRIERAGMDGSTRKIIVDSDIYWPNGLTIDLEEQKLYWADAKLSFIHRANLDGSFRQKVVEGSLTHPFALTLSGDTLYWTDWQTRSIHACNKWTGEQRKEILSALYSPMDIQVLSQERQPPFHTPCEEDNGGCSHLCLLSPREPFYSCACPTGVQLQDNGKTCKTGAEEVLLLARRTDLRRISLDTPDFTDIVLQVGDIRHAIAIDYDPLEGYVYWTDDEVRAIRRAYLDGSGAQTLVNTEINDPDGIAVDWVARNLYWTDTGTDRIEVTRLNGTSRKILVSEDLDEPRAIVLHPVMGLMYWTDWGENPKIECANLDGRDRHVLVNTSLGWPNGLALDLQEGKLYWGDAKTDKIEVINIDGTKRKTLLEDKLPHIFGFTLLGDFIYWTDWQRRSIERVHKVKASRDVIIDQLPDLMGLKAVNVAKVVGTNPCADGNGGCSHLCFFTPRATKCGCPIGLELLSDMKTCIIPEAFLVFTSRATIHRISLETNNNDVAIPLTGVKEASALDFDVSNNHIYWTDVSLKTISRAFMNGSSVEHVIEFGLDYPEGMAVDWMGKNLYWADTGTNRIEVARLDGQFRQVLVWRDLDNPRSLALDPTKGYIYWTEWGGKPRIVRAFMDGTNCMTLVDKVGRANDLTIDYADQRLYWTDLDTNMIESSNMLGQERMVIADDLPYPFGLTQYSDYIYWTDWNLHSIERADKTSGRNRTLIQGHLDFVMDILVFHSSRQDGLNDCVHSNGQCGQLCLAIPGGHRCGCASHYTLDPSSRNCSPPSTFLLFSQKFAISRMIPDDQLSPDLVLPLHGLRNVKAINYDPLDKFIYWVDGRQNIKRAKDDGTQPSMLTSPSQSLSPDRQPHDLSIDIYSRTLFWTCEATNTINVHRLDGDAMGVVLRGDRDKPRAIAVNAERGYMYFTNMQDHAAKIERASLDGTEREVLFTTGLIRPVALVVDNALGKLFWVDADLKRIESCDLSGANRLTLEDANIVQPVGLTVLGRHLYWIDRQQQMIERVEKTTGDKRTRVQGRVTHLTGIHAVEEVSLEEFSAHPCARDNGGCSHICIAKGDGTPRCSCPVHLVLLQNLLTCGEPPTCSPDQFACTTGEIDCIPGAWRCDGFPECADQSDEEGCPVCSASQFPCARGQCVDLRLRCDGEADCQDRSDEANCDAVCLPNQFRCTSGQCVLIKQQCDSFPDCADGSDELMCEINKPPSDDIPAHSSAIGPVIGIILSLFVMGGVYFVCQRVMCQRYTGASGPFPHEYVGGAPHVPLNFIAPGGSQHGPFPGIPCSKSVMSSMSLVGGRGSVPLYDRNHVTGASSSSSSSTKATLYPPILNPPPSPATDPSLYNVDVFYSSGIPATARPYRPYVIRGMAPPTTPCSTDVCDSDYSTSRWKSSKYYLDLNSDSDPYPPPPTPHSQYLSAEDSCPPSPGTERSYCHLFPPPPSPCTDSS

Chain of Lrp6 + Fzd4 co-expressed on STF (superTOPFLASH) reporter cells (O88572 20-1613 limits assumed, chain 1 of 2): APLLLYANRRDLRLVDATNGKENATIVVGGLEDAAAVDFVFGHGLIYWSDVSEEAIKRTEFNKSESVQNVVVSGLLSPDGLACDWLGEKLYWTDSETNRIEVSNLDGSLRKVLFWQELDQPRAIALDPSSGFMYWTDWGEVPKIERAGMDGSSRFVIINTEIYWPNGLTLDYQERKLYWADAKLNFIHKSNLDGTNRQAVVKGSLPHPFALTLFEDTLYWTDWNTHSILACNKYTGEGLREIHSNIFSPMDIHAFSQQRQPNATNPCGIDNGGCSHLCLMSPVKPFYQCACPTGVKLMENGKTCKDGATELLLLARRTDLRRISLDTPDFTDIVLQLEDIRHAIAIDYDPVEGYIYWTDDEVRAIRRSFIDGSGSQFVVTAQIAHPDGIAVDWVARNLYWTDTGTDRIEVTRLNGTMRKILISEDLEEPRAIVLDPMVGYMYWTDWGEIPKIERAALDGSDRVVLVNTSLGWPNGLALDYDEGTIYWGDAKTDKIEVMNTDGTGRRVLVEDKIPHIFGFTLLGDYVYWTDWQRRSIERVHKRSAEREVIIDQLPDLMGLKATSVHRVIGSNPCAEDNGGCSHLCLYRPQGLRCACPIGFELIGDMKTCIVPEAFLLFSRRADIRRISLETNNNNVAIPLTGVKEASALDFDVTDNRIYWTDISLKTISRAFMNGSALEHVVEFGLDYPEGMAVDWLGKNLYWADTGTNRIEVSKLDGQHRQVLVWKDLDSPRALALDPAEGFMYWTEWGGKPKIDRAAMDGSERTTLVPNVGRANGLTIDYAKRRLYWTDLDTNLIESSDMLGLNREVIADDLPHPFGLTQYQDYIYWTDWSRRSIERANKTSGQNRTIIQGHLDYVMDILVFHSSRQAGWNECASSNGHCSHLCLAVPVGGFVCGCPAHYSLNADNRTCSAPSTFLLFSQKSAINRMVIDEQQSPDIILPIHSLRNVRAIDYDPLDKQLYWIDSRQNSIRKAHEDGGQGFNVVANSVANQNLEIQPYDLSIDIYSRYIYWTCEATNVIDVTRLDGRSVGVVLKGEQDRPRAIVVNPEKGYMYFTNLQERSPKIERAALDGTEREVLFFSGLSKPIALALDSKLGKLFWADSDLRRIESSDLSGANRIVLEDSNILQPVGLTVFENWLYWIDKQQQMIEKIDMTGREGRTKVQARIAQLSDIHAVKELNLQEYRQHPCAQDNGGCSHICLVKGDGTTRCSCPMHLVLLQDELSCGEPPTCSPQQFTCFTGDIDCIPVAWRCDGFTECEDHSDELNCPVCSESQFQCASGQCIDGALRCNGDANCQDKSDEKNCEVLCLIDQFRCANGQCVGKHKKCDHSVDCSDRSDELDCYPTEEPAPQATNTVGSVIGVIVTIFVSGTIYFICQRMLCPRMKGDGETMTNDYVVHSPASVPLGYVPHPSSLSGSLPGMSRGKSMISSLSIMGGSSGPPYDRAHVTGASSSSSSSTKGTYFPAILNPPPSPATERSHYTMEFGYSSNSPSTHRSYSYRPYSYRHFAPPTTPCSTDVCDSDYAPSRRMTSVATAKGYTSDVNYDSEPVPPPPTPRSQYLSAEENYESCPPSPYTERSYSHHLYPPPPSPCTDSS
Chain of Lrp6 + Fzd4 co-expressed on STF (superTOPFLASH) reporter cells (Q61088 37-537 limits assumed, chain 2 of 2, further chain): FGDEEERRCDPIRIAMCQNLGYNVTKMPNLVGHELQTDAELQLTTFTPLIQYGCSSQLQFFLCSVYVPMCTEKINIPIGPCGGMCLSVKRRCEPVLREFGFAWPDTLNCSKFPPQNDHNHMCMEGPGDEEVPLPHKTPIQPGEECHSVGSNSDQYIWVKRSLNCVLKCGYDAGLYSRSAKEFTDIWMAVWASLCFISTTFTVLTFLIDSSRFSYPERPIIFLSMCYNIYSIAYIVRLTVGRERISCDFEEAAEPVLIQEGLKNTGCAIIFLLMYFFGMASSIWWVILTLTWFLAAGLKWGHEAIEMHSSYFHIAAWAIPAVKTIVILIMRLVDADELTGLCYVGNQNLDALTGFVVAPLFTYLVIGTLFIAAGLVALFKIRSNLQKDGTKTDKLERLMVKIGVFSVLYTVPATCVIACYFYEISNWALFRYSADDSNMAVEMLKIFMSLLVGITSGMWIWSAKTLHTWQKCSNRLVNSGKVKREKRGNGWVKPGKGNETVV
Chain of Lrp6 + Fzd7 co-expressed on STF (superTOPFLASH) reporter cells (O88572 20-1613 limits assumed, chain 1 of 2, other chains not shown): as the sequence (O88572 20-1613 limits assumed, chain 1 of 2) above
Chain of Lrp5 + Fzd4 co-expressed on STF (superTOPFLASH) reporter cells (Q91VN0 31-1614 limits assumed, chain 1 of 2): as the sequence (Q91VN0 31-1614 limits assumed, chain 1 of 2, other chains not shown) above
Chain of Lrp5 + Fzd4 co-expressed on STF (superTOPFLASH) reporter cells (Q61088 37-537 limits assumed, chain 2 of 2, further chain): as the sequence (Q61088 37-537 limits assumed, chain 2 of 2, further chain) above

**Q.** What does the source list for “Wnt7b (ORF cloned from C57BL6 kidney cDNA, expressed by 293 cells or bone marrow macrophages) (from UniProt P28047 25-349) (ligand)”?
**A.** Firefly Luciferase, absolute light units, STF reporter cells co-cultured with 293-Wnt7b (293-control: 464) (absolute light units) [1]: 11500; Firefly Luciferase, absolute light units, STF reporter cells co-cultured with 293-Wnt7b (293-control: 573) (absolute light units) [2]: 10100; Firefly Luciferase, absolute light units, STF reporter cells co-cultured with 293-Wnt7b (293-control: 6430) (absolute light units) [3]: 26900; Firefly Luciferase, absolute light units, STF reporter cells co-cultured with 293-Wnt7b (293-control: 16172) (absolute light units) [4]: 51600
